Laboratory results published in patent US20170088605A1.

Columns and labels:
[1] = biological target: BKV serotype IV chimeric infectious virus (VP1 of strain ITA-4) (BK virus serotype IV)
[2] = biological target: BKV serotype III chimeric infectious virus (VP1 of isolate AS) (BK virus serotype III)
[3] = biological target: BKV serotype I infectious virus (VP1) (BK virus serotype I) (UniProt P03088)
[4] = biological target: BKV serotype II chimeric infectious virus (VP1 of isolate SB) (BK virus serotype II)

BKV serotype I infectious virus (VP1) (BK virus serotype I), sequence (P03088 whole entry): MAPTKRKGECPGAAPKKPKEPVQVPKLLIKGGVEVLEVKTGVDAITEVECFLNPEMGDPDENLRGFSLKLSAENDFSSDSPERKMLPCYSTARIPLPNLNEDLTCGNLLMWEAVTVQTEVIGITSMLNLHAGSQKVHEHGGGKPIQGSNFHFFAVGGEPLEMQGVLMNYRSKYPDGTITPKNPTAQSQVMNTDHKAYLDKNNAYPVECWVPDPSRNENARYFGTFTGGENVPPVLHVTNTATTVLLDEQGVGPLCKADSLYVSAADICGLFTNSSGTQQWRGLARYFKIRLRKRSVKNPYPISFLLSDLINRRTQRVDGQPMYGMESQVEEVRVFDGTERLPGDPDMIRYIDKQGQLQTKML

B1: P46F4 (antibody, V domains shown)
VH: QVQLQESGPGLVKPSQTLSLTCTVSGGSISNGGYYWSWIRLHPGKGLEWIGCIHYSGGTYYNPSLKSRVTVSLDTSKNQFSLNLISVTAADTAIYFCARALIAAPGISDWFDPWGQGTLVTVSS
VL: QSVLTQPPSVSAAPGQKVTISCSGSNSNVGHNYVSWYQQLPGTAPKLLIYDNNKRPSGIPDRFSGSKSGTSATLGITGLQTGDEADYYCGTWDSSLSAGVFGGGTKVTVLG
With B1 the neutralization EC50 [1] was > 100 µg/mL, the neutralization EC90 [1] was > 100 µg/mL and the neutralization EC50 [2] was > 100 µg/mL. For the same binder, the neutralization EC90 [2] was > 100 µg/mL, the neutralization EC50 [3] was 0.004 µg/mL and the neutralization EC90 [3] was 0.29 µg/mL. The neutralization EC50 [4] was > 100 µg/mL and the neutralization EC90 [4] was > 100 µg/mL.
